B1: ZNF193 (parent)
chain: QKRYHCKECGKVFSQSAGLIQHQR

Variants of: B1
Assay: protein stability index of a GFP-peptide fusion (GPS, HEK-293T) (PSI 1-6); higher = more stable
Conditions: c terminus: a fixed tail appended
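Note: lentivirally expressed fusions sorted by FACS into six bins by GFP to DsRed ratio, PSI derived from sequencing read proportions per bin multiplied by bin number.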

Compared with I20E, I20N is lower in protein stability index: 2.91 for the first, 2.5 for the second.

Compared with I20R, I20M is lower in protein stability index: 3.5 for the first, 2.86 for the second.

Compared with I20W, I20F is higher in protein stability index: 2.4 for the first, 2.45 for the second.

Compared with I20Y, I20V is higher in protein stability index: 2.98 for the first, 3.22 for the second.

Compared with I20S, I20A is higher in protein stability index: 2.69 for the first, 3.06 for the second.

Compared with I20H, I20L is lower in protein stability index: 3.31 for the first, 3.08 for the second.

Compared with I20T, I20G is lower in protein stability index: 3.09 for the first, 2.38 for the second.

Compared with I20C, I20P is lower in protein stability index: 3.95 for the first, 2.27 for the second.

Going from I20D to I20Q, the protein stability index falls from 3.02 to 2.83.

Compared with I20K, A17C is lower in protein stability index: 3.26 for the first, 2.45 for the second.

Going from A17P to A17N, the protein stability index rises from 2.02 to 3.05.

First: A17I
Second: A17R
The protein stability index of the first is lower: 2.28 for the first, 3.21 for the second.

First: A17H
Second: A17D
The protein stability index of the first is lower: 2.66 for the first, 3.42 for the second.

Going from A17K to A17W, the protein stability index falls from 3.09 to 2.86.

Compared with A17E, A17L is lower in protein stability index: 3.51 for the first, 2.22 for the second.

Going from A17M to A17S, the protein stability index rises from 1.82 to 3.02.

Going from A17G to A17Q, the protein stability index rises from 2.54 to 2.76.

Going from A17V to A17F, the protein stability index falls from 2.48 to 2.27.

Compared with A17T, A17Y is lower in protein stability index: 2.46 for the first, 1.94 for the second.

Going from E8L to E8T, the protein stability index rises from 2.75 to 2.94.

Going from E8P to E8S, the protein stability index rises from 2 to 2.59.

First: E8V
Second: E8Y
The protein stability index of the first is higher: 2.68 for the first, 2.67 for the second.

Going from E8M to E8W, the protein stability index rises from 2.6 to 2.71.

Compared with E8Q, E8N is higher in protein stability index: 2.91 for the first, 2.99 for the second.

Compared with E8R, Q21V is lower in protein stability index: 3.12 for the first, 2.37 for the second.

Going from Q21M to Q21E, the protein stability index rises from 2.55 to 3.7.

First: Q21K
Second: Q21I
The protein stability index of the first is higher: 2.6 for the first, 2.1 for the second.

Compared with Q21P, Q21H is higher in protein stability index: 2.08 for the first, 2.88 for the second.

First: Q21C
Second: Q21W
The protein stability index of the first is higher: 3.06 for the first, 2.44 for the second.

First: Q21S
Second: Q21D
The protein stability index of the first is lower: 2.47 for the first, 3.82 for the second.

First: Q21Y
Second: Q21T
The protein stability index of the first is lower: 2.21 for the first, 2.61 for the second.

First: Q21F
Second: Q21N
The protein stability index of the first is lower: 1.91 for the first, 3.02 for the second.

First: Q21A
Second: Q21R
The protein stability index of the first is higher: 3.2 for the first, 2.69 for the second.

First: Q21L
Second: Q21G
The protein stability index of the first is lower: 2.57 for the first, 2.67 for the second.

First: S16P
Second: S16N
The protein stability index of the first is higher: 3.44 for the first, 3.11 for the second.

First: S16H
Second: S16A
The protein stability index of the first is higher: 3.77 for the first, 3.71 for the second.

Going from S16F to S16G, the protein stability index falls from 2.86 to 2.7.

Compared with S16Y, S16T is lower in protein stability index: 3.8 for the first, 2.27 for the second.

First: S16I
Second: S16K
The protein stability index of the first is lower: 2.98 for the first, 3.53 for the second.

First: S16W
Second: S16R
The protein stability index of the first is lower: 2.99 for the first, 3.97 for the second.

Going from S16M to S16E, the protein stability index rises from 3.72 to 4.39.

Going from S16V to S16Q, the protein stability index rises from 2.62 to 3.88.

First: S16D
Second: S16C
The protein stability index of the first is lower: 2.47 for the first, 2.9 for the second.

First: S16L
Second: G10S
The protein stability index of the first is higher: 3.59 for the first, 2.11 for the second.

First: G10V
Second: G10K
The protein stability index of the first is lower: 1.46 for the first, 1.98 for the second.

Compared with G10L, G10N is higher in protein stability index: 1.95 for the first, 2.5 for the second.

First: G10T
Second: G10Y
The protein stability index of the first is higher: 1.83 for the first, 1.67 for the second.

Compared with G10R, G10E is higher in protein stability index: 2 for the first, 2.01 for the second.

First: G10C
Second: G10A
The protein stability index of the first is lower: 1.83 for the first, 1.96 for the second.

Going from G10Q to G10D, the protein stability index falls from 2.29 to 1.79.

Going from G10H to G10I, the protein stability index falls from 1.84 to 1.51.

Compared with G10P, G10M is lower in protein stability index: 2.33 for the first, 2.12 for the second.

First: G10W
Second: G10F
The protein stability index of the first is lower: 2.02 for the first, 2.03 for the second.

Going from V12L to V12C, the protein stability index rises from 2.25 to 2.81.

Compared with V12K, V12N is lower in protein stability index: 3.2 for the first, 2.78 for the second.

First: V12Y
Second: V12A
The protein stability index of the first is higher: 2.75 for the first, 2.43 for the second.

First: V12E
Second: V12D
The protein stability index of the first is lower: 3.23 for the first, 3.27 for the second.

First: V12G
Second: V12S
The protein stability index of the first is lower: 2.77 for the first, 3.27 for the second.

Compared with V12M, V12I is higher in protein stability index: 2.6 for the first, 2.76 for the second.

First: V12T
Second: V12R
The protein stability index of the first is higher: 3.52 for the first, 3.33 for the second.

Going from V12F to V12Q, the protein stability index rises from 2.67 to 2.82.

V12H and V12W are the same in protein stability index: 2.82 for the first, 2.82 for the second.

First: V12P
Second: C9D
The protein stability index of the first is lower: 2.17 for the first, 3.97 for the second.

Compared with C9M, C9I is higher in protein stability index: 2.63 for the first, 2.83 for the second.

Going from C9F to C9E, the protein stability index rises from 2.17 to 3.64.

Going from C9H to C9V, the protein stability index falls from 3.13 to 3.07.

Compared with C9W, C9G is higher in protein stability index: 2.58 for the first, 3.2 for the second.

First: C9R
Second: C9K
The protein stability index of the first is lower: 3.38 for the first, 3.64 for the second.

First: C9S
Second: C9A
The protein stability index of the first is lower: 3.11 for the first, 3.45 for the second.

First: C9N
Second: C9Q
The protein stability index of the first is lower: 3.17 for the first, 3.19 for the second.

Going from C9T to C9P, the protein stability index falls from 3.27 to 3.04.

Going from C9L to C9Y, the protein stability index rises from 2.52 to 2.7.

First: Q15E
Second: Q15G
The protein stability index of the first is higher: 3.85 for the first, 2.8 for the second.

Going from Q15L to Q15M, the protein stability index rises from 1.99 to 2.06.

Compared with Q15H, Q15K is higher in protein stability index: 2.91 for the first, 3.45 for the second.

Going from Q15F to Q15A, the protein stability index rises from 2.28 to 2.83.

First: Q15R
Second: Q15Y
The protein stability index of the first is higher: 3.08 for the first, 2.73 for the second.

First: Q15P
Second: Q15N
The protein stability index of the first is lower: 1.58 for the first, 4.24 for the second.

First: Q15T
Second: Q15I
The protein stability index of the first is higher: 4.01 for the first, 1.92 for the second.

First: Q15S
Second: Q15C
The protein stability index of the first is higher: 4.11 for the first, 3.93 for the second.

Going from Q15V to Q15D, the protein stability index rises from 2.16 to 4.51.

First: Q15W
Second: S14Q
The protein stability index of the first is lower: 2.06 for the first, 2.86 for the second.

First: S14D
Second: S14I
The protein stability index of the first is higher: 3.47 for the first, 2.64 for the second.

For S14H, the protein stability index was 2.98.

From the supplement of paper PMC10567573
